Source: US7825096B2, “O6-alkylguanine-DNA alkyltransferase inactivators and beta-glucuronidase cleavable prodrugs” (The United States of America as represented by the …, priority 2004, dated 2010)

Legend:
Assay type in all cases: biochemical
[1] = substrate: O=C(Nc1nc(OCc2ccccc2)c2nc[nH]c2n1)OCc1ccc(O[C@@H]2O[C@H](C(=O)O)[C@@H](O)[C@H](O)[C@H]2O)c([N+](=O)[O-])c1; assay: Enzymatic hydrolysis of prodrugs by E. coli β-glucuronidase in MOPS buffer; conditions: other: E. coli β-glucuronidase, 37° C., pH 7.0
Procedure: (§1) The enzymatic hydrolysis of the prodrugs was investigated with both E. coli and bovine liver β-glucuronidase in MOPS buffer at pH 7.0. Prodrugs and p-nitrobenzyl alcohol (HPLC internal standard) were dissolved in the MOPS buffer (pH 7.0) at 37° C. Enzymatic cleavage was initiated by adding 0.2 Fishman units of E. coli β-glucuronidase (Sigma type IX-A) (42.8 units/mg of protein) or 10 Fishman units of bovine liver β-glucuronidase (Sigma type B-10) (10.2 units/mg of protein) to the incubation buffer. Aliquots (100 μL) of the reaction mixture were withdrawn at various times and were mixed with 100 μL of acetonitrile/0.1 M TEAA (6:4) to quench the enzymatic reaction. Prodrug and product concentrations were determined by HPLC. For determination of enzyme kinetic parameters, prodrug solutions at concentrations between 5 and 300 μM were incubated with a fixed amount of enzyme. Aliquots were withdrawn at time intervals varying from 1 to 20 min and the reactions were quenched as described above. Initial reaction velocities were determined at each substrate concentration. Non-linear regression methods were used to determine KM and Vmax values. Data were processed with Prism 3.0 software.

[2] = substrate: O=C(Nc1nc(OCc2ccccc2)c2ncn([C@H]3C[C@H](O)[C@@H](CO)O3)c2n1)OCc1ccc(O[C@@H]2O[C@H](C(=O)O)[C@@H](O)[C@H](O)[C@H]2O)c([N+](=O)[O-])c1; assay: as above; conditions: other: E. coli β-glucuronidase, 37° C., pH 7.0
Procedure: as §1

[3] = substrate: O=C(Nc1nc(OCc2ccccc2)c2nc[nH]c2n1)OCc1ccc(O[C@@H]2O[C@H](C(=O)O)[C@@H](O)[C@H](O)[C@H]2O)c([N+](=O)[O-])c1; assay: Enzymatic hydrolysis of prodrugs by bovine liver β-glucuronidase in MOPS buffer; conditions: other: bovine liver β-glucuronidase, 37° C., pH 7.0
Procedure: as §1

[4] = substrate: O=C(Nc1nc(OCc2ccccc2)c2ncn([C@H]3C[C@H](O)[C@@H](CO)O3)c2n1)OCc1ccc(O[C@@H]2O[C@H](C(=O)O)[C@@H](O)[C@H](O)[C@H]2O)c([N+](=O)[O-])c1; assay: as above; conditions: other: bovine liver β-glucuronidase, 37° C., pH 7.0
Procedure: as §1

B1: E. coli β-glucuronidase (Escherichia coli K-12) (protein)
chain: MLRPVETPTREIKKLDGLWAFSLDRENCGIDQRWWESALQESRAIAVPGSFNDQFADADIRNYAGNVWYQREVFIPKGWAGQRIVLRFDAVTHYGKVWVNNQEVMEHQGGYTPFEADVTPYVIAGKSVRITVCVNNELNWQTIPPGMVITDENGKKKQSYFHDFFNYAGIHRSVMLYTTPNTWVDDITVVTHVAQDCNHASVDWQVVANGDVSVELRDADQQVVATGQGTSGTLQVVNPHLWQPGEGYLYELCVTAKSQTECDIYPLRVGIRSVAVKGEQFLINHKPFYFTGFGRHEDADLRGKGFDNVLMVHDHALMDWIGANSYRTSHYPYAEEMLDWADEHGIVVIDETAAVGFNLSLGIGFEAGNKPKELYSEEAVNGETQQAHLQAIKELIARDKNHPSVVMWSIANEPDTRPQGAREYFAPLAEATRKLDPTRPITCVNVMFCDAHTDTISDLFDVLCLNRYYGWYVQSGDLETAEKVLEKELLAWQEKLHQPIIITEYGVDTLAGLHSMYTDMWSEEYQCAWLDMYHRVFDRVSAVVGEQVWNFADFATSQGILRVGGNKKGIFTRDRKPKSAAFLLQKRWTGMNFGEKPQQGGKQ
notes: purchased Sigma type IX-A
Km [1]: 17.0 µM
Vmax [1]: 466000 µmol/mg/h
Km [2]: 41.1 µM
Vmax [2]: 677000 µmol/mg/h

B2: bovine liver β-glucuronidase (Bos taurus) (protein)
chain: MLRGSAGAWAVLGPLLWGCGLSLLQGGMLYPRESRSRERKELDGLWSFRADFSDNRRQGFEQQWYRAPLRESGPTLDMPVPSSFNDVGQDGQLRSFVGWVWYEREITLPQRWTEDLGTRVVLRIGSAHYYAIVWVNGVHVLEHEGGHLPFEADISKLVQSGPLSSCRITIAINNTLSPHTLPPGTILYKTDPSMYPKGYFVQNTKFDFFNYAGLHRSVLLYTTPTTYIDDITVTTDMDQDIGLVNYQIIVQGSDHFQVDVSLLDEEGKVMAKGAGAEGQLQVPSAHLWWPYLMHEHPAYLYSLEVKLTAQTAVGPVSDFYTLPVGIRTVAVTKSQFLINGKPFYFRGVNKHEDADIRGKGFDWPLLVKDFNLLRWLGANAFRTSHYPYSEEVLQLCDRYGIVVIDESPGVGIVLVESFSNVSLQHHLEVMEEMIRRDKNHPAVVMWSLANEPASFLKPAGYYFKTLIAHTKALDPSRPVTFVTNTNYEADLGAPYVDIICVNSYYSWYHDYGHMEVIQLQLATQFENWYKAYQKPMIQSEYGADAIEGFHEDPPLMFSEEYQKGLLQQYHVVLDQKRKEYVVGELIWNFADFMTNQSPVRMIGNRKGIFTRQRQPKSAAFLLRERYWKLANETRYQRSAVTSQCVGSGLFTV
notes: bovine liver β-glucuronidase (Sigma type B-10) (10.2 units/mg of protein); purchased Sigma type B-10; host or cells: bovine liver
Km [3]: 244 µM
Km [4]: 362 µM
